Where a SMILES comes first, the peptide text is derived from it. Bridges are numbered along the chain shown (N, C = ends). Where no end group is shown, it is not given here.
What was measured:
BLyS = biological target: T1, BLyS (Homo sapiens, UniProt Q9Y275); assay: Competitive displacement ELISA (biotinylated miniBR3), peptide-PEG conjugates; type: binding
T1 construct: A DNA fragment encoding human BAFF (residues 82-285) was cloned; His-tag (with thrombin cleavage site) (N, cleaved yes); made in house; host or cells: E. coli BL21 (DE3)
T1 sequence (Q9Y275 82-285): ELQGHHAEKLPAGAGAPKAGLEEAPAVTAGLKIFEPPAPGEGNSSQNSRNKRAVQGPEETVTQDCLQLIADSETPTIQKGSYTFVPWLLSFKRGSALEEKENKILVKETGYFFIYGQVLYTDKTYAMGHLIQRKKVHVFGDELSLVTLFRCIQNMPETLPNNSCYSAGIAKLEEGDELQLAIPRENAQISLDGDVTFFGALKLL
Procedure: The plate was washed with PBS and blocked with 1% skim milk in PBS. […] After washing with PBS/0.05% Tween, 100 μl well of each dilution was transferred and incubated for 1 hour at room temperature. The plate was washed with PBS/0.05% Tween and incubated 15 min with 100 μl/well of 0.1 U/ml Streptavidin-POD (Boehringer Mannheim) in PBS/0.05% Tween.

[1] = Serum IgG and IgM in BR3-Fc treated mice; type: in vivo, mouse
[2] = Expected serum IgG and IgM in responding human patients; type: in vivo; settings: human patients responding to treatment
B cells [3] = assay: B cell depletion by anti-CD20 mAb, BR3-Fc or combination in hCD20+ mice (FIG. 29, 30); type: in vivo, mouse
Procedure: FACS analysis was performed on of spleen, blood, lymph node B cells (gated on CD21^+CD23^+).
(§1) Mice were treated with control IgG2a, BAFFR/BR3-Fc (100 μg/mouse IP daily for 12 days), anti-hCD20 mAb (100 μg/mouse IP on day 9) or the combination of BAFFR/BR3-Fc and anti-hCD20 mAb (same dosing as single treatment groups). B220^+ splenocytes were isolated on day 13 and stained for CD21 and CD23. N=5 mice/group.
In the Experimental Examples, the BR3-Fc or BAFFR/BR3-Fc used is hBR3-Fc of SEQ ID. NO. 2. […] Each group consisted of 4 mice. Two days following the last injection, the mice were sacrificed and analyzed for hCD20^+ B cells. FACS analysis of spleen, blood, lymph node and Peyer's Patches were analyzed for B cell markers (CD21^+CD23^+).
as §1, with “For the experiment shown in FIG. 30, hCD20 Tg+ mice” for “Mice”, “mice/group. […] The mice were treated with single doses of 0.1 mg control IgG2a, BAFF/BR3-Fc or anti-hCD20 mAb. Splenocytes were analyzed on day 4. N=5 mice/group.” for “mice/group.”

BAFF/BLyS = biological target: T2, BAFF/BLyS (Mus musculus, UniProt Q9WU72); settings: lupus-prone mice; cited from earlier work
T2 construct: host or cells: lupus-prone mice
T2 sequence (Q9WU72 127-309 limits assumed): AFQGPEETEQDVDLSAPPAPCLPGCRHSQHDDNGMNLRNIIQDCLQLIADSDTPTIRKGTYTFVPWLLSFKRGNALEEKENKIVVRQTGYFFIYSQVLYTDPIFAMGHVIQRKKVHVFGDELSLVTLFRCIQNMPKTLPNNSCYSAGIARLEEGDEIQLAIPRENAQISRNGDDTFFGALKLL

B cells [4] = settings: peripheral blood, lymph nodes, bone marrow; cited from earlier work
[5] = tested on: T-independent B cell response; assay: T-independent immune response to Streptococcus pneumoniae IV after B cell depletion; type: in vivo, mouse; settings: mAb day 0, S. pneumoniae IV i.v. day 7, response day 11
Procedure: On the 3 panels at the right, the spleen cells were stained for the streptococcus polysaccharide-phosphatidyl choline (the TI antigen). CD138 is a marker for plasma cells.
Next, it was determined whether upon B cell depletion, the mice were able to develop T independent immune response. […] At day 7, the mice were injected i.v. with Streptococcus pneumoniae IV to induce a response to the polysaccharide.

lymphoid B cell lines = settings: binds human complement; cited from earlier work
[6] = biological target: T3, human BAFF (residues 82-285) (human, UniProt Q9Y275 82-285); assay: phage display selection on BAFF
T3 construct: Coated on plates in the ELISAs; also used biotinylated or free in solution for phage sorting; also called BAFF82-285; BLyS82-285
T3 sequence (Q9Y275 82-285): as the sequence (Q9Y275 82-285) above

[7] = biological target: T3, human BAFF (residues 82-285); assay: competitive displacement ELISA on BAFF-coated plates, biotinylated miniBR3 as tracer

| Molecule | binding result [6] | other results |
| --- | --- | --- |
| CC(=O)N[C@@H](CCC(=O)O)C(=O)N[C@H]1CSSC[C@@H](C(=O)NCC(=O)N[C@@H](CC(C)C)C(=O)N[C@@H](CC(C)C)C(=O)N[C@@H](CCCNC(=N)N)C(N)=O)NC(=O)[C@@H]2CCCN2C(=O)[C@H](C(C)C)NC(=O)[C@H](Cc2c[nH]c3ccccc23)NC(=O)[C@H](Cc2c[nH]cn2)NC(=O)[C@H](CCCNC(=N)N)NC(=O)[C@H](C(C)C)NC(=O)[C@H](CC(C)C)NC(=O)[C@H](CC(C)C)NC(=O)[C@H](CC(=O)O)NC(=O)[C@H](Cc2ccccc2)NC1=O [BLyS0048] (Ac-ECFDLLVRHWVPCGLLR-NH2; disulfide 2-13) | – | IC50 (BLyS; 3 ng/ml biotinylated miniBR3, four-parameter fit): 14 nM; IC50 (BLyS; separate experiment): 15 nM |
| BR3-Fc: hBR3-Fc immunoadhesin of SEQ ID NO. 2, BAFF antagonist | – | Serum levels of IgG and IgM [1]: reduced; serum IgG and IgM levels [2]: reduction in serum IgG and IgM levels; T2 and follicular B cells in the spleen (B cells [3]; hCD20+ mice): decreases; marginal zone B cells in the spleen (B cells [3]; hCD20+ mice): decreases; mature circulating B cells in the blood and lymph nodes (B cells [3]; hCD20+ mice, 100 micrograms every other day Days 1 through 12): decreases; MZ and T2/FO B cells in spleen (FIG. 30, panel 3) (B cells [3]; treatment for ~2 weeks, 100 μg/mouse IP daily for 12 days, splenocytes day 13): marked decrease; autoimmune serologies, renal pathology and mortality (BAFF/BLyS): improved autoimmune serologies, renal pathology and mortality |
| rituximab [Rituxan] | – | B cell depletion (B cells [4]): depletes B cells from the peripheral blood, lymph nodes, and bone marrow; B cell response from the marginal zone and germinal centers of the spleen to T-independent antigen [5]: did not affect the B cell response; complement-dependent cytotoxicity (CDC) (lymphoid B cell lines): lyses lymphoid B cell lines through complement-dependent cytotoxicity (CDC) |
| ECFDSLVRAWVPCGVLS [SEQ ID NO 119] | binds | – |
| ECFDRLVNGWVPCAVLH (disulfide 2-13 (inferred)) [SEQ ID NO 123] | binds | – |
| Ac-ECFDLLVRAWVPCSVLK-NH2 (disulfide 2-13 (inferred)) [Ac-ECFDLLVRAWVPCSVLK-NH2 (BLyS0051)] | – | binding result [7]: binds |
| ECFDTLVNAWVPCNLLD (disulfide 2-13 (inferred)) [SEQ ID NO 122] | binds | – |
| ECFDLLVNDWVPCGAIT (disulfide 2-13 (inferred)) [SEQ ID NO 125] | binds | – |
| Ac-ECFDLLVRHWVACGLLR-NH2 (disulfide 2-13 (inferred)) [Ac-ECFDLLVRHWVACGLLR-NH2 (BLyS0027)] | – | binding result [7]: binds |
| ECFDHLVRIWVPCTALA (disulfide 2-13 (inferred)) [SEQ ID NO 121] | binds | – |
| ECFDRLVRAWVPCTALT (disulfide 2-13 (inferred)) [SEQ ID NO 114] | binds | – |
| ECFDLLVRRWVPCHLIT [SEQ ID NO 115] | binds | – |
| ECFDPLVRDWVRCDILT (disulfide 2-13 (inferred)) [SEQ ID NO 117] | binds | – |
| ECFDILVGRWVPCGLIH (disulfide 2-13 (inferred)) [SEQ ID NO 116] | binds | – |
| ECFDALVHRWVDCAVLG (disulfide 2-13 (inferred)) [SEQ ID NO 127] | binds | – |
| ECFDRLVNAWVDCRLLA (disulfide 2-13 (inferred)) [SEQ ID NO 124] | binds | – |
| ECFDALVRRWVDCSLLR [SEQ ID NO 126] | binds | – |
| ECFDVLVHRWVPCGLIR [SEQ ID NO 120] | binds | – |
| ECFDPLVRVWVPCTVLR [SEQ ID NO 118] | binds | – |

Reference: patent publication US20050163775A1, “Combination therapy for B cell disorders” (Genentech, Inc., priority 2003, published 2005)
